The target of the test is Toll-like Receptor 5 (TLR5) constitutively expressed by HEK293 cells (UniProt O60602). As to the kind of experiment: cell-based or functional assay.

B1: STF2.HA1-2His(PR8), produced in Baculovirus (protein)
chain: AQVINTNSLSLLTQNNLNKSQSALGTAIERLSSGLRINSAKDDAAGQAIANRFTANIKGLTQASRNANDGISIAQTTEGALNEINNNLQRVRELAVQSANSTNSQSDLDSIQAEITQRLNEIDRVSGQTQFNGVKVLAQDNTLTIQVGANDGETIDIDLKQINSQTLGLDSLNVQKAYDVKDTAVTTKAYANNGTTLDVSGLDDAAIKAATGGTNGTASVTGGAVKFDADNNKYFVTIGGFTGADAAKNGDYEVNVATDGTVTLAAGATKTTMPAGATTKTEVQELKDTPAVVSADAKNALIAGGVDATDANGAELVKMSYTDKNGKTIEGGYALKAGDKYYAADYDEATGAIKAKTTSYTAADGTTKTAANQLGGVDGKTEVVTIDGKTYNASKAAGHDFKAQPELAEAAAKTTENPLQKIDAALAQVDALRSDLGAVQNRFNSAITNLGNTVNNLSEARSRIEDSDYATEVSNMSRAQILQQAGTSVLAQANQVPQNVLSLLASGSGSGSKGIAPQLGKCNIAGWLLGNPECDPLLPVRSWSYIVETPNSENGICYPGDFIDYEELREQLSSVSSFERFEIFPKESSWPNHNTNGVTAACSHEGKSSFYRNLLWLTEKEGSYPKLKNSYVNKKGKEVLVLWGIHHPPNSKEQQNLYQNENAYVSVVTSNYNRRFTPEIAERPKVRDQAGRMNYYWTLLKPGDTIIFEANGNLIAPMYAFALSRGFGSGIITSHHHHHH
In turn, B1 gave a TLR activity (EC50, ng/ml) of 9 ng/mL.

B2: STF2.HA1-1His(PR8), produced in E. coli (protein)
chain: MAQVINTNSLSLLTQNNLNKSQSALGTAIERLSSGLRINSAKDDAAGQAIANRFTANIKGLTQASRNANDGISIAQTTEGALNEINNNLQRVRELAVQSANSTNSQSDLDSIQAEITQRLNEIDRVSGQTQFNGVKVLAQDNTLTIQVGANDGETIDIDLKQINSQTLGLDSLNVQKAYDVKDTAVTTKAYANNGTTLDVSGLDDAAIKAATGGTNGTASVTGGAVKFDADNNKYFVTIGGFTGADAAKNGDYEVNVATDGTVTLAAGATKTTMPAGATTKTEVQELKDTPAVVSADAKNALIAGGVDATDANGAELVKMSYTDKNGKTIEGGYALKAGDKYYAADYDEATGAIKAKTTSYTAADGTTKTAANQLGGVDGKTEVVTIDGKTYNASKAAGHDFKAQPELAEAAAKTTENPLQKIDAALAQVDALRSDLGAVQNRFNSAITNLGNTVNNLSEARSRIEDSDYATEVSNMSRAQILQQAGTSVLAQANQVPQNVLSLLASHNGKLCRLKGIAPLQLGKCNIAGWLLGNPECDPLLPVRSWSYIVETPNSENGICYPGDFIDYEELREQLSSVSSFERFEIFPKESSWPNHNTNGVTAACSHEGKSSFYRNLLWLTEKEGSYPKLKNSYVNKKGKEVLVLWGIHHPPNSKEQQNLYQNENAYVSVVTSNYNRRFTPEIAERPKVRDQAGRMNYYWTLLKPGDTIIFEANGNLIAPMYAFALSRGFGSGIITSNASMHECNTKCQTPLGAINSSLPYQNIHPVTIGECPKYVRHHHHHH
B2: the TLR5 activity (EC50, ng/ml) was determined as 0.2 ng/mL.

B3: ngSTF2.HA1-1His(PR8), produced in Baculovirus (protein)
chain: AQVINTNSLSLLTQNNLQKSQSALGTAIERLSSGLRINSAKDDAAGQAIANRFTANIKGLTQASRNANDGISIAQTTEGALNEINNNLQRVRELAVQSAQSTNSQSDLDSIQAEITQRLNEIDRVSGQTQFNGVKVLAQDNTLTIQVGANDGETIDIDLKQINSQTLGLDSLNVQKAYDVKDTAVTTKAYANQGTTLDVSGLDDAAIKAATGGTQGTASVTGGAVKFDADNNKYFVTIGGFTGADAAKNGDYEVNVATDGTVTLAAGATKTTMPAGATTKTEVQELKDTPAVVSADAKNALIAGGVDATDANGAELVKMSYTDKNGKTIEGGYALKAGDKYYAADYDEATGAIKAKTTSYTAADGTTKTAANQLGGVDGKTEVVTIDGKTYQASKAAGHDFKAQPELAEAAAKTTENPLQKIDAALAQVDALRSDLGAVQNRFNSAITNLGNTVNQLSEARSRIEDSDYATEVSQMSRAQILQQAGTSVLAQANQVPQNVLSLLASGSGSGSSHNGKLCRLKGIAPLQLGKCNIAGWLLGNPECDPLLPVRSWSYIVETPNSENGICYPGDFIDYEELREQLSSVSSFERFEIFPKESSWPNHNTNGVTAACSHEGKSSFYRNLLWLTEKEGSYPKLKNSYVNKKGKEVLVLWGIHHPPNSKEQQNLYQNENAYVSVVTSNYNRRFTPEIAERPKVRDQAGRMNYYWTLLKPGDTIIFEANGNLIAPMYAFALSRGFGSGIITSQASMHECNTKCQTPLGAIQSSLPYQNIHPVTIGECPKYVRHHHHHH
B3 had a TLR activity (EC50, ng/ml) of 30 ng/mL.

The record behind these values is patent US20130224798A1.
